Values joined by “and” are separate entries in the source; they are usually repeats but may differ in a detail not shown here. Identical values can stand only once.
Target: phosphocellulose-purified tubulin (bovine (endogenous in bovine brain)) (UniProt Q6B856)
Experiment: native gel or EMSA

- stoichiometry N: 4 and 6 and 8
Substance: phosphocellulose-purified tubulin (from UniProt Q6B856 1-445) (complex)

— publication PMC2275616
